Test results taken from the nanobody polyreactivity screen of Harvey et al. (2022).

Test: yeast display, Sf9 membrane polyspecificity reagent, FACS + sequencing; frameworks hold sequencing errors
How it was run: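 Polyreactivity labels are assigned by the sorting gate from which each nanobody was recovered. The gates were low and high (top ~1%), set on anti-HA fluorescence for expression and streptavidin fluorescence for reagent binding. Before sorting, galactose-induced (36–48 hours) yeast display cells were stained for 1 hour at 4 °C with 10% biotinylated, detergent-solubilized Sf9 membrane reagent.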

Sequence	polyreactivity (PSR sort gate)
QVQLVESGGGLLQAGGSLRLSCAASGRIFGQYAMGWYRQAPGKEREFVAGISTTGGSTYYADSVKGRFTISRDNAKNTVYLQMNSLKPEDTAVYYCAVRINWSRWYHYYTYNYWGQGTQVTGSS	high polyreactivity
QVQLVESGGGLVQAGGSLRLSCAASGITFTRNVMGWYRQAPGKERELVAAISGSGGSTYYADSVKGRFTISRDNAKNTVYLQMNSLKPEDTAVYYCAARSRGGRRYDYWGQGTQVTVSS	high polyreactivity
QVQLVESGGGLVQAGGSLRLSCAASGSIFIGNAMGWYRQAPGKERELVAAITWSGGSTTYADSVKGRFTISRDNAKNTVYLQMNSLKPEDTAVYYCNASIYQRYDYWGQGTQVTVSS	low polyreactivity
QVQLVESGGGLVQAGGSLRLICAASGITFFRNAMGWYRQAPGKERELVATITKSGGSTYYADSVKGRFTISRDNAKNTVYLQMNSLKPDDTSVYYCSAVRRYPVKYVAYDYWGQGTQVTVSS	low polyreactivity
QVQLEESGGGLVQAGGSLRLSCAAYYAMGWYRQAPGKERELVAAISSTGRTNYADSVKGRFTISRDNAKNTVYLQMNSLKPEDTAVYYCNAGDRSGMEYWGQGTQVTVSS	low polyreactivity
QVQLVESGGGLVQAGGSIRLSCAASGSIFYYGLGWYRQAPGKERELVAAITRGGSTYYADSVKGRFTISRDNAKNTVYLQMNSLKPEDTAVYYCAKYPVGGYDYWGQGTQVTVSS	low polyreactivity
QDQLVESGGGLVQAGGSLRLSCAASGRTFVFYAMGWYRQAPGKERELVAAITSGTSTNYADSVKGRFTISRDNAMNTVYLQMNSLKPEDTAVYYCAAYWTDLTYSIGFGYWGQGTQVTVSS	low polyreactivity
QVQLVESGGGLVQAGGSLRLSCAASGSIFWLYAMGWYRQAPGKESELVAAIDSGDSTKYADSVKGRFTISRDNAKNTVYLQMNSLKPEDTAVYYCNASRRYHVRAPYDYWGQGTQVTVSS	low polyreactivity
QVQLVESGGGLVQAGGSLRFSCAASGRIFRYYAMGWYRQAPGKERELVAGIRTSGGRTYADSVKGRFTISRDNAKNTVYLQMNSLKPEDTAVYYCAAGRRTLSMYYWGQGTQVTVSS	high polyreactivity
QVQLVESGGGLVQAGGSLRLSCAASGFIFGYYAMGWYRQAPGKERELVAAISKSGGSTYYADSVKGRFTISRDNAKNTVYLQMNSLKPEDTAVYYCAARYTRPFGPFDYWGQGTQVTVSS	low polyreactivity
QVQLVESRGGLVQAGGSLRLSCPASGSTFVSNAMGWYRQAPGKERELVAAISKSGGSTYYADSVKGRFTISRDNAKNTVYLQMISLKPEDTAVYYCAKYNAKSFYGQYDYWGQGTQVTVSS	high polyreactivity
QVQLVESGGGLVQAGGSLRLSCAASGRTFAQYTMGWYRQAPGKERELVAGIDWSGGNTYYADSVKGRFTISRDNAKNTVYLQMNSLKPEDTAVYYCAAVPAFYNAWGEDYEYWGQGTQVTVSS	low polyreactivity
QVQLVESGGGLVQAGGSLRLSCAASGSIFYNTMGWYRQAPGKERELVAAISGTRASTYYADSVKGRFTISRDNAKNTVYLQMNSLKPEDTAVYYCAAVPAYPRDYDYWGQGTQVTVSS	low polyreactivity
QVQLVESGGGLVQAGGSLRLICAASGFIFRTNAMGWYRQAPGKQRELVAAISRSGNTYYADSVKGRFTISRDNAKNTVYLQMNSLKPEDTAVYYCAAQSVRWYSTFKYYYWGQGTQVTVSS	high polyreactivity
QVQLQESVGGLVQAGGTLRMSCAASGSFSADEDMGWYRQAQGKEREFVAGISVGGNTNYADSVKGRFTISRENAKNTVYLQINSLKPEETAVYYCAADYKPTSRSNTYYYWGQGTQVTVSS	high polyreactivity
QVQLVESGAGLVQARGSLRLSCAASGYTFLGYAMGWYRQAPGKERELVAAINRSGSSTYYADSVKGRFTISRDNAKNTVYLQMNSLKPEDTAVYYCNARSGNRYGPRYDYWGQGTQVTVSS	high polyreactivity
QVQLEESGGCLVQEGGSLRLSCAASGIIFTSNTLGWYRQAPGKEREFVASINWNGSSTYADSVKGRFTISRDNAKNTVYLQMNSLKPEDTAVYYCNADYNRNSVQFSLYDYWGQGTQVTVSS	low polyreactivity
